Our source for the activity values is US20160303255, “COMPOSITIONS AND METHODS FOR TREATMENT OF MUSCULAR DYSTROPHY” (CONSIGLIO NAZIONALE DELLE RICHERCHE, published 2016).

The target of this data set is JZif1 (artificial (human Zif268/EGR1 derived), UniProt P18146 SEQ:1-543). Description: cell_activity; luciferase induction in HeLa, pXP-Luc (about 318 bp human utrophin promoter A); also active in C2C7 (FIG. 8). Particulars: tags: none. Here is the method: To investigate the ability of JZif1, JZif2, Vp16-CJ7-UtroUp, Vp16-Bagly and Vp16-Jazz to upregulate (i.e., increase) expression from the utrophin promoter “A”, their ability to drive expression of a luciferase reporter gene placed downstream of a utrophin promoter “A” fragment was tested.
JZif1, sequence (P18146 other isoform, or with tags, fused parts or gaps): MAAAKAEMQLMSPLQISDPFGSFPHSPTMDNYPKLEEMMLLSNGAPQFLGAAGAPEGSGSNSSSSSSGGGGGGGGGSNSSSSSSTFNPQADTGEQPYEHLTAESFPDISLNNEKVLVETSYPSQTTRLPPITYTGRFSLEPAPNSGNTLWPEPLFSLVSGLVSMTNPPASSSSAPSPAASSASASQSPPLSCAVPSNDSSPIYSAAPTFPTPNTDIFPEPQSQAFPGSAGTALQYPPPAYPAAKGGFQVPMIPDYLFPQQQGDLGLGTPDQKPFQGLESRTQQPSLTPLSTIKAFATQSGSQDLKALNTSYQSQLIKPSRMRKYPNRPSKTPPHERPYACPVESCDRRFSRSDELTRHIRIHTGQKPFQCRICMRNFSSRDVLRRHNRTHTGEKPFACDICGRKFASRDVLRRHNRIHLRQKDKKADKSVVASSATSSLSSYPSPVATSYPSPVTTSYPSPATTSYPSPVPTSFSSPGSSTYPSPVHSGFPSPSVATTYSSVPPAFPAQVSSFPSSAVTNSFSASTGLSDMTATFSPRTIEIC
To test the ability of these artificial transcription factors to increase expression from the utrophin promoter “A” in human cells, HeLa cells were co-transfected with a plasmid carrying JZif1, JZif2, Vp16-CJ7-UtroUp, Vp16-Bagly or Vp16-Jazz under control of the cytomegalovirus (CMV) promoter together with the luciferase reporter construct plasmid pXP-Luc (pXP). JZif1, JZif2, Vp16-CJ7-UtroUp, Vp16-Bagly and Vp16-Jazz were each able to increase luciferase expression relative to controls (FIG. 7). […] By comparison, no increase in luciferase expression was detected when the pXP plasmid was co-transfected with a plasmid carrying the zinc finger domain of Jazz without a transcriptional activation domain, with a plasmid carrying the genomically-encoded human transcription factor Zif268's transcription activation domain without its zinc finger motifs, or with a plasmid carrying the transcriptional activation domain of Vp16 without a zinc finger DNA binding domain, which served as controls (FIG. 7). […]

B1: Jazz/JZif1 target in human utrophin promoter A (dsDNA)
DNA 1: GCTGCTGCG
DNA 2: CGCAGCAGC
For B1, the activity is > 20 fold.
